Data taken from publication PMC8390506, “Interaction of spindle assembly factor TPX2 with importins-α/β inhibits protein phase separation” (The Journal of Biological Chemistry, 2021).
Substitutions are numbered along the chain they refer to.

What was measured:
[1] = molecular target: T1, Targeting Protein for XKlp2 (TPX2), full length, wild type (Xenopus laevis, UniProt Q6NUF4 1-716); test: SEC-MALS; Superdex-200-increase 3.2/300; importin-αΔIBB alone and TPX2 (2 μM) with importin-αΔIBB (20 μM); conditions: both partners purified
T1 construct: TPX2, Xenopus laevis, full length; 1 to 716; Named GFP-TPX2 for SEC-MALS; also called GFP-TPX2; wt-TPX2; source: recombinant, purified to >95% purity
T1 sequence (looked up): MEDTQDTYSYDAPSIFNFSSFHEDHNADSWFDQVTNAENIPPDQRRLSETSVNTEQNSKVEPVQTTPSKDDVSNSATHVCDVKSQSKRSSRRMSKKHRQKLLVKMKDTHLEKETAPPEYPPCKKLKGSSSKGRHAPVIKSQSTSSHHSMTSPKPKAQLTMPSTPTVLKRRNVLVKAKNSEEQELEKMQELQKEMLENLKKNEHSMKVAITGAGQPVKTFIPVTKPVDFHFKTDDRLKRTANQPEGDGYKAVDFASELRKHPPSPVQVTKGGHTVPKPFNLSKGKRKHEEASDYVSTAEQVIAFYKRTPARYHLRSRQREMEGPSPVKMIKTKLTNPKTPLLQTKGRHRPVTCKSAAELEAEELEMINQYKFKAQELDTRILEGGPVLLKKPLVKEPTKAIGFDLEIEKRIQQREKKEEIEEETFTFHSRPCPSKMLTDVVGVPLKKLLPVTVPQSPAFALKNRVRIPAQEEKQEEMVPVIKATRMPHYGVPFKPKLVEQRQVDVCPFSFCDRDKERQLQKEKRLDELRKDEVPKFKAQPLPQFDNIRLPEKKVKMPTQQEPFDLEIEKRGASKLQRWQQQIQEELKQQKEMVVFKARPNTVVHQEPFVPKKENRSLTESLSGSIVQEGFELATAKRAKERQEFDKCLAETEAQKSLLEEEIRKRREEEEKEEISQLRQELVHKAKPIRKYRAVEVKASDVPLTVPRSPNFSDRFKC

[2] = molecular target: the molecule itself; test: as above
TPX2 construct 1 to 178 = molecular target: T2, TPX2 construct 1 to 178 (Xenopus laevis, UniProt Q6NUF4 1-178); test: BLI; Octet (ForteBio); TPX2 attached to sensors, importin concentration varied; normalized amplitudes; apparent Kd; conditions: both partners purified
T2 construct: TPX2, Xenopus laevis, amino acids 1-178; also called wild-type-1-178 TPX2 construct; TPX2 1 to 178; source: recombinant, purified to >95% purity
T2 sequence (looked up): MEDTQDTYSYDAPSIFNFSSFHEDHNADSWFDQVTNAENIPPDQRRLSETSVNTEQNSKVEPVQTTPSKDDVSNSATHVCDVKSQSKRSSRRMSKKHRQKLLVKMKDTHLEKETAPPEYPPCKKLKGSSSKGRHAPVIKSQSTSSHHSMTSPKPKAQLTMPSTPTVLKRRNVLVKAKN

[3] = molecular target: T1, Targeting Protein for XKlp2 (TPX2), …; test: as above; conditions: both partners purified
TPX2 construct 1 to 260 = molecular target: T3, TPX2 construct 1 to 260 (Xenopus laevis, UniProt Q6NUF4 1-260); test: as above; conditions: both partners purified
T3 construct: TPX2, Xenopus laevis, amino acids 1-260; also called TPX2 1 to 260; source: recombinant, purified to >95% purity
T3 sequence (looked up): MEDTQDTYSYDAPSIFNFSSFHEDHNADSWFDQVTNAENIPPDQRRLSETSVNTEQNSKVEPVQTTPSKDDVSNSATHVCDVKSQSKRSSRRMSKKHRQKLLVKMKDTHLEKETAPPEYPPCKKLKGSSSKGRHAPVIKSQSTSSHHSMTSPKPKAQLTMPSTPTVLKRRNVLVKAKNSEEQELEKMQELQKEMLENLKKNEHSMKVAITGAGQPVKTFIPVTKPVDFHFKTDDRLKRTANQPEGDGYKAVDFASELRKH

[4] = molecular target: T4, TPX2 1 to 178 with the KKLK motif mutated (K123A, K124A, K126A) (Xenopus laevis, UniProt Q6NUF4 1-178, K123A | K124A | K126A); test: as above; conditions: both partners purified
T4 construct: TPX2, Xenopus laevis, amino acids 1-178 with the lysines of KKLK (123-126) mutated to alanines; also called TPX2 1 to 178 (K123A, K124A, K126A); source: recombinant, purified to >95% purity
T4 sequence (looked up): T2 sequence (looked up) with K123A, K124A, K126A

[5] = molecular target: triple-mutant TPX2 (3M-TPX2) (Xenopus laevis, UniProt Q6NUF4 1-716, K123A | K124A | K126A | K284A | R285A | K327A | K330A); test: as above; conditions: both partners purified
[6] = molecular target: T1, Targeting Protein for XKlp2 (TPX2), …; test: cell-based or functional assay

B1: importin-αΔIBB (truncated importin-α without the importin-β-binding domain) (domain or fragment)
chain: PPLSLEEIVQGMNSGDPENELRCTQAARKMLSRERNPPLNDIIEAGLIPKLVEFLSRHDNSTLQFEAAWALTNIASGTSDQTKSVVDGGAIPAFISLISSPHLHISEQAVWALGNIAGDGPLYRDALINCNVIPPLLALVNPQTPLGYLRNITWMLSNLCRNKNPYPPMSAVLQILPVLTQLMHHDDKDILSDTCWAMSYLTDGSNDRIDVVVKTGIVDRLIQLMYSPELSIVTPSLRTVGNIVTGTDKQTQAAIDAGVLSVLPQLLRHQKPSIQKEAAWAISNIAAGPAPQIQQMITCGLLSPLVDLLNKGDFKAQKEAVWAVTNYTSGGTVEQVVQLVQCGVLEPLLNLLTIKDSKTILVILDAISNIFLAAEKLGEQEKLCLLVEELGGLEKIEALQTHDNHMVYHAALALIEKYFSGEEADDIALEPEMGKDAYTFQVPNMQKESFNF
stoichiometry N [1]: > 1 importin-αΔIBB:TPX2
stoichiometry N [2]: 2
Kd (TPX2 construct 1 to 178): 15 ± 3 nM
Kd [3]: 61 ± 10 nM
Kd (TPX2 construct 1 to 260): 20 ± 4 nM
fold loss of binding against the wild-type 1-178 construct [4]: 10 fold
Kd [5]: 410 ± 70 nM
inhibition of TPX2 condensation (fluorescence microscopy; TPX2 1 μM, importin-αΔIBB 1x to 20x; enhancement at lower concentrations) [6]: ~20 fold excess
